Measurements taken from the DeepSol protein solubility set.

Experiment: soluble on expression in E. coli; label from the status in PepcDB or PDB records

Row | Sequence | soluble on expression in E. coli
1 | AHHHHHHGSQRLEESTSCRGVGDMRKAIIVGVGMTPVGEHWRSSLRDLAVEAILNAMDDAGIDKVDSLYVGNMASGSFVEQENLGALIADWAGLGNIPAVKIEAACASGGAAVQEGAKAVLSGLEDVVLVVGVEKMTDAWPSDATRYLGYAADAEWELFHGASFVALNALIMRLYMNTYGYKEEDLALFAVNAHANGAKNPYAMFKKPITVETVMKSPYIADPLKLFDASPVCDGAAAVIITTPEKAKELGIPKDKWIEIAGMGRAIDTINLANREDFLTLKAATIAAERAYKMAGVKPEDVDFFEVHDAFTVMAALSLEALGVAKKGEGAKLAIEGQIAIDGDYPIQTMGGLKARGHPVGATGVYQVVEAVLQLRGEAPDGIQVPDAEVGLTQNIGGTGSNITVTVLRRV | soluble
2 | AHHHHHHGSTWREILRKEGFLDLGEFIVELVYIDCPCEPIPPTLAIYDKKGDEWYKVEEAPNVQNYREAVEWAIEVLERIRDGENVKLVSLDGPAPPKVMKRLSLALQKLTE | not soluble
3 | AIAEHKEVVLLLLLFLKSGQGEPLDDYVNTQGPSLFSVTKKQLGAGSREECAAKCEEDKEFTCRAFQYHSKEQQCVIMAENRKSSIIIRMRDAVLFEK | soluble
4 | AIAEVLRPPLININGRIYRKNPVQEETYEEEEEDCSYSEAAVDQCLDEPCDAHNIEQTDRGFRCALDVPSVLYKYIIGKKGETRRRLESETKTSINIPKQGVEGQIVVTGAHRPSVSSAVTRIEVLIDSFRRKQPFTHFLSFALNHAQVREGFLRFREEVLEHCSQDSGVDVSIFQNPDKLHLTIGTLVLLNQQEVTRANELLHQCQDTIREITGAEALPVEVRGVEYMNDDPSMVDVLYAKVSVQDGSDRLQQISDRLVECFVSAGLMERERDRVKIHATVMNTLFRRDPSAEDRGAPARANPRDREAFNGKNILQMFGDFYFGAFELNSVQISQRFSTDSSGYYSSAGHITFS | soluble
5 | AIAGNTTSERVSGERHGAKAARAEGGGHGPGKEHKIMVGSTDDPSVFSLPDSKLPGDKEFVPWQQDLDDSVKPAQQARPTVIRWSEGGKEVFISGSFNNWSTKIPLIKSHNDFVAILDLPEGEHQYKFFVDGQWVHDPSEPVVTSQLGTINNLIHVKKSDFEVFDALKLDSMESSETSCRDLSSSPPGPYGQEMYVFRSEERFKSPPILPPHLLQVILNKDTNISCDPALLPEPNHVMLNHLYALSIKDSVMVLSATHRYKKKYVTTLLYKPI | soluble
6 | AIANCCIGLGEKARGSHRASYPSLSALFTEASILGFGSFAVKAQWTEDCRKSTYPPSGPTVFPAVIRYRGAVPWYTINLDLPPYKRWHELMLDKAPVPGLLGNFPGPFEEEMKGIAAVTDIPLGEIISFNIFYELFTVCTSIVAEDKKGHLIHGRNMDFGVFLGWNINNDTWVITEQLKPLTVNLDFQRNNKTVFKASSFAGYVGMLTGFKPGLFSLTLNERFSINGGYLGILEWILGKKDAMWIGFLTRTVLENSTSYEEAKNLLTKTKILAPAYFILGGNQSGEGCVITRDRKESLDVYELDAKQGRWYVVQTNYDRWKHPFFLDDRRTPAKMCLNRTSQENISFETMYDVLSTKPVLNKLTVYTTLIDVTKGQFETYLRDCPDPCIGW | soluble
7 | AIANFNDAKNEILQVLSKTERQHLPKLLEWIKTSDDLDDILVDNQSVILHSIAEDLRACLPMEAMAPSETLAMQKTQQKAHPTVHVDAFLYDDETVDSLCEEGKMSRTYCLNCGSHRTAPLEFISHSFSIPELQFLFHNVLPELTGKLVLDVGSRLGAVLFGGYLYSAASQLVGVEMSSEFVKLQSMAVEKYGFSDRIQVIHADIRSQIALVQKADVLIMNNVFEYFMEPRDQMQAWLYISQNFRKKGALLVTVPSIQEALGLLQDAAFLETLSLSQWIEEIPVDYSVYLKNDTDPDSLKQIHLYRVL | soluble
8 | AIAPGRKRKLAAKTAELAPEAGEGSESTSLVGSADASASTAAGVAHTEQQEMPSGGLHESFLESIPPAASFLEELAWVESLASPSYVAYLCQMRRFDDVVAQRRLTTLQRWRQDPAYRQHVSQPIALFFLEQLCSAEFREALRHPAVAALYERQVDLYRRCYGNLLNTGESRVLR | soluble
9 | AIASCGKPQETYSTSSILTREQFEIQHQEEDTIGEQVIFIDGVAYNSRGFRVCGAPNQRGGFCARFGQCPFHKDKVTTFKMSEETVSEFPRQLLTESCNLLQNNERKFKNAWKLDEHHRFLVALKKFGHGNWRQIADYVETRSASQCQSHAQKYYLRKRKLASNANLKRSIFDLIDEDTLSVEIGEEDTWNIIQKCPSKEAQGSVRSRSKTLQRMSTDSSVESYPIRELSTVDSELSTLQTYKQASFFIRIFRNGVFSHGVDLELPNSLASFFIKAAQLLDMSVATKAYTRSGFEISSLHEVCPGDILWISSGEEFIFPSPVQYIET | soluble
10 | AIASDKYIGDSHLEETGEEKQDSQEKEAVTPEKAEEQKLKAKYPNLGQKPGGSDFLMKRLQKGQKYFDSGDYNMAKAKIKNKQLPCAGPDKNLVTGDHIPTPQDLPQRKSSLVTSKLAGHVEDLHHV | soluble
11 | AIASFRTCHNWFPLCLLLKETNNDISGEGIYSSRSELFQQPLAKETQRWSTGPSFVKHYGRLKRHSLPAVHFFDNSQSFLQNLQPNETFPETTTLDWKELENATRLLNDFMESASEDGDSLFDDEFPTMHAKTKLQDGLSTHPQSPPSDITQSVLSNTQSPVPSMLSETELPDFGEDFVNANEELVS | soluble
12 | AIASQFDPDKFKQEQKARWNQGARSTWTLWKQTQVEDTPAKFFLGLVPIRPGVKVLDLACGSGETSLQVAQLVSSHLPSDSKDAKIVCVDISEEMLRVLSQRAQELGLSSVVETCCEDAENINFGTHYFDMVMSQFGVMFLPHLPEDLANIRKMMKPGSLFCCVVWGEEKDCHIFYAARSVVSPPPPPPGTPVSYGTKEKVMEALRKAEFSDVKAVEFQVVHETKDAEEYITLMSGVNQWLEKSLGEKGSGPWQKLVEYCNNSYRTSRGTLQFPNVCVGITAIA | soluble
13 | AIATGVYADAVLVSVTVGDTVTLHTAGVKNLQPADVKWYFNDIRIAQLDGDLRFNCTDIQCNDRTEIFIDRLRLDRKTGALTIVNITNTHSGVYQLVVIGGGGTIFNVTVHDDPATHYNQVKKNQGESVTFNPGVRRDLIVVLKCLLNNTLIAEISVNQSQICADVQCKERFTDRLKLDNESASLTITNTNITDSGNYTSVILISSDRRFSITREKRFSLTVTSLSSSQPSGGAIAGIVVMLLLLL | soluble
14 | AIIVKKTTEIEQTHKDYDPYQILGLDQGADEKAIKKAWRDMSKIHHPDRGGDAQFFDKIAKAHQALTDKEARENWEKYGNPDGPTATTFGIALPKWLVSKEYGL | not soluble
15 | AISQDYNINMSGGNDKGTYYAGLGYNRQEGLPIKTFYERYSFVLNASYKITDWLTSSSNFNYNRANWKNMPGSQTSEGNYFGRIMSTPPTVRFQDEDGNPTLGPVAGDGNQNYQPDKWWNFNQSDKFTMVQAFQIDILKNLSVKGTANWYYSESLAESFTRDYENTPGQFVRTRSSSASFSRNFSQTYNVVLNYNQTFAKDHNVAVMLGMEYFDRYSRSFSASGSGAPTDDFADLSLTDNGEGKRSIDSGHSDYRILSYFGRLNYDYKGRYLLSAVFRQDGYSSLLGDNRWGFFPGVSAGWIFGQENFVKNALPFLSFGKLRASYGVNGNATGIGAYDLQGSYNSQKYNGNVGFLIGALPNPGLKWEKTRTAEVGIDMSFFENRLNANFTYYNRLTSDKYANLSLPSTTGFSSIKNNNGKFRNSGVEIELSGKILKTKDWSWDLGGNISFNKNKIVSLPDNGLIRNQQDAAQIYSGRQLSDGTYEKIWVGGNQEGYEPGVLIAYKADGLYRSWDEIPGDLVVTSGNYFGKKMYGPEAWKKLSSAEQKNALPIQPGDVKWRDINGDGMIDNYDQVVVGNTNPHWIGGFNTTLRWKNFQLYGRFDFAFDYWIYDNTTPWFLGCMQGTYNTTKDVFNTWSEENPNAKYPRFVYADQLMNANYYRTSTLFAYKGNYLAIREISLSYSLPKAWANKAYCQKVDVSITGQNLGYITSANVASPEVSSAGSGYALPRTLLFGLNVTF | not soluble
16 | AKVEVGDEVGNFKFYPDSITVSAGEAVEFTLVGETPHNIVFDIPAGAPGTVASELKAASMDENDLLSEDEPSFKAKVSTPGTYTFYCTPHKSANMKGTLTVK | soluble
17 | ALAKRIDAALILKDGRVVKGSNFENLRDSGDPVELGKFYSEIGIDELSFWDITASVEKRKTMLELVEKVAEQIDIPITVGGGIYDFETASELILRGADKVEINTAAVENPSLITQIAQTFGSQAVVVYIAAKRVDGEFMVFTYSGTKNTGILLRDWVVEVEKRGAGEIVLGSIDRLGTKSGYDTEMIRFVRPLTTLPIIAHRGAGKTEHFLEAFLAGADAAKADSVFHSREIDVRELKEYLKKHGVNVRLEGLGSLEHHHHHH | soluble
18 | ALIIVSGSEGRIEKAQNIAQLLSSRGYICLAIAYFGLEGLPKHLKRIPLECLVEAKSYLRQYPQVDSERIGIYGRSKGAELVLAEESIFNDVQCLVLNSPSDVVDEGIIGKWNSHTSSWTHLQKELPYQKFRFRDYLFSKLFRKDFPKDCSARIDIGQMHSPILLLESTVDEIWDASSAIDDIVSHYKGHYITFKKYHETGHMLTVAYQPNHRYRKDWHLLMKESEDSWLATIHFFDRHLK | not soluble
19 | AMGTKSSAAVALKGLQFVTAKVGNDGWAAVEKRFNQLQVDGVLLRSRFGKCIGMDGSDEFAVQMFDSLARKRGIVKQVLTKDELKDFYEQLTDQGFDNRLRTFFDMVDKNADGRLTAEEVKEIIALSASANKLSKIKERADEYTALIMEELDPTNLGYIEMEDLEALLLQSPSEAAARS | soluble
20 | AMNAYYIQDRLEAQSWARHYQQLAREEKEAELADDMEKGIPQHLFESLCIDHLQRHGASKKSITRAFDDDVEFQERMAEHIRYMVETIAHHQVDIDSEV | soluble
21 | APIKVGINGFGRIGRMVFQAICDQGLIGTEIDVVAVVDMSTNAEYFAYQMKHDTVHGRPKYTVEAVKSSPSVETADVLVVNGHRIKCVKAQRNPADLPWGKLGVDYVIESTGLFTDKLKAEGHIKGGAKKVVISAPASGGAKTIVMGVNQHEYSPASHHVVSNASCTTNCLAPIVHVLTKENFGIETGLMTTIHSYTATQKTVDGVSLKDWRGGRAAAVNIIPSTTGAAKAVGMVIPSTKGKLTGMSFRVPTPDVSVVDLTFRATRDTSIQEIDKAIKKAAQTYMKGILGFTDEELVSADFINDNRSSVYDSKATLQNNLPGEKRFFKVVSWYDNEWAYSHRVVDLVRYMAAKDAASSKM | soluble
22 | APPSSFSKAKKEAVKIYLDYPTSFYCGCDITWKNKKKGIPELESCGYQVRKQEKRASRIEWEHVVPAWQFGHQRQCWQKGGRKNCTRNDKQFKSMEADLHNLVPAIGEVNGDRSNFRFSQWNGSKGAFYGQCAFKVDFKGRVAEPPAQSRGAIARTYLYMNNEYKFNLSKAQRQLMEAWNKQYPVSTWECTRDERIAKIQGNHNQFVYKAC | soluble
23 | APTAPSIDMYGSNNLQFSKIELAMETTSGYNDMVKYHELAKIKVKFNQWSGTSGDTYNVYFDGVKVATGAITGSQTTASFEYGQGGLYQMEIEACDATGCSKSAPVEITIADTDGSHLKPLTMNVDPNNKSYNTDPSIVMGTYFVEWGIYGRDYTVDNMPVDNLTHILYGFIPICGPNESVKSVGGNSFNALQTACRGVNDYEVVIHDPWAAYQKSFPQAGHEYSTPIKGNYAMLMALKQRNPDLKIIPSIGGWTLSDPFYDFVDKKNRDTFVASVKKFLKTWKFYDGVDIDWEFPGGGGAAADKGDPVNDGPAYIALMRELRVMLDELEAETGRTYELTSAIGVGYDKIEDVDYADAVQYMDYIFAMTYDFYGGWNNVPGHQTALYCGSFMRPGQCDGGGVDENGEPYKGPAYTADNGIQLLLAQGVPANKLVLGTAMYGRGWEGVTPDTLTDPNDPMTGTATGKLKGSTAQGVWEDGVIDYKGIKSFMLGANNTGINGFEYGYDAQAEAPWVWNRSTGELITFDDHRSVLAKGNYAKSLGLAGLFSWEIDADNGDILNAMHEGMAGGVVTPPNRRSHHHHHH | soluble
